The source of these data is US20110160440A1 (GENENCOR INTERNATIONAL, published 2011).

Positions count from the first letter of the chain named.

Assay [1] has as its target T1, CEA (carcinoembryonic antigen, Biodesign Intl., Saco, Me.) (UniProt P06731 35-685).
T1 construct: also called immobilized CEA
T1 sequence: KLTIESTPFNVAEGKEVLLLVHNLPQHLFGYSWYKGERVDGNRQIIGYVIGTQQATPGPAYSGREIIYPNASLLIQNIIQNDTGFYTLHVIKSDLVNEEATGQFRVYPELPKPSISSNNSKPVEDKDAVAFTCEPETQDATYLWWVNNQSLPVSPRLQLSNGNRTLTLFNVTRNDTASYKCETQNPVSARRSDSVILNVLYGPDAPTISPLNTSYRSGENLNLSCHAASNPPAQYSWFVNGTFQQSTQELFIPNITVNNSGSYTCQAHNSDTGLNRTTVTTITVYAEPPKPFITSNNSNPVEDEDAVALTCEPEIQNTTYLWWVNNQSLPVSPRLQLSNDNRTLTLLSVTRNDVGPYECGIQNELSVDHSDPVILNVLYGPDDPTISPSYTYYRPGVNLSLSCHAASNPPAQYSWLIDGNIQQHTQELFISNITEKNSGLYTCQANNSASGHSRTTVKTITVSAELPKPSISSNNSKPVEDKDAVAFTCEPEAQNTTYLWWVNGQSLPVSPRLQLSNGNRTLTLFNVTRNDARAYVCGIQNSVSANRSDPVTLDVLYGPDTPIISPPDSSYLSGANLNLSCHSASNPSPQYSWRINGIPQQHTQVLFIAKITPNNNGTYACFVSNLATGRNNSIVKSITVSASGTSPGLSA
As to the kind of experiment: screen of library SW155.

Assay [2] has as its target T1, CEA (carcinoembryonic antigen, …). Put plainly: CEA-coated plate, bound BLA activity (nitrocefin), cell lysate.
Assay [3] shares this target. As to the kind of experiment: CEA-coated plate, binding curves at pH 6.5 and pH 7.4, bound BLA activity.
Assay [4] shares this target. Put plainly: CEA-coated plate after thermolysin treatment of the lysate, bound BLA activity.
Assay [5] shares this target. As to the kind of experiment: screen of H3 site saturation mini-libraries for improved affinity.

B1: CAB1.7 (clone pSW155.17) (scFv)
chain: QVQLQQSGAELVKSGGSVKLSCTASGFNIKDSYMHWVRQGPEQGLEWIGWIDPENGDTEYAPKFQGKATFTTDTSSNTAYLQLSSLTSEDTAVYYCNEGLPLGAIYNDYWGQGTTVTVSSGGGGSGGGGSGGGGSENVLTQSPAIVSASPGEKVTITCSASSAVYAMHWFQQKPGTSPKLVIYDTSNLASGVPARFSGSGSGTSYSLTISRMEAEDAATYYCQQRDSYPLTFGAGTKLELDRAATPVSEKQLAEVVANTITPLMKAQSVPGMAVAVIYQGKPHYYTFGKADIAANKPVTPQTLFELGSISKTFTGVLGGDAIARGEISLDDAVTRYWPQLTGKQWQGIRMLDLATYTAGGLPLQVPDEVTDNASLLRFYQNWQPQWKPGTTRLYANASIGLFGALAVKPSGMPYEQAMTTRVLKPLKLDHTWINVPKAEEAHYAWGYRDGKAVRVSPGMLDAQAYGVKTNVQDMANWVMANMAPENVADASLKQGIALAQSRYWRIGSMYQGLGWEMLNWPVEANTVVETSFGNVALAPLPVAEVNPPAPPVKASWVHKTGSTGGFGSYVAFIPEKQIGIVMLANTSYPNPARVEAAYHILEALQ
notes: scFv-BLA fusion
Turning to B1, the binding result in assay [1] is given as “binds”.

B2: NA05.12 (scFv)
chain: QVQLQQSGAELVRPGTSVKLSCTASGFNIKDSYMHWVRQGPEQGLEWIGWIDPENGDTEYAPKFQGKATFTTDTSSNTAYLQLSSLTSEDTAVYYCNEGTPTGPYYFDYWGQGTTVTVSSGGGGSGGGGSGGGGSENVLTQSPAIVSASPGEKVTITCSASSSVSYMHWFQQKPGTSPKLWIYSTSNLASGVPARFSGSGSGTSYSLTISRMEAEDAATYYCQQRSSYPLTFGAGTKLELKRAATPVSEKQLAEVVANTITPLMKAQSVPGMAVAVIYQGKPHYYTFGKADIAANKPVTPQTLFELGSISKTFTGVLGGDAIARGEISLDDAVTRYWPQLTGKQWQGIRMLDLATYTAGGLPLQVPDEVTDNASLLRFYQNWQPQWKPGTTRLYANASIGLFGALAVKPSGMPYEQAMTTRVLKPLKLDHTWINVPKAEEAHYAWGYRDGKAVRVSPGMLDAQAYGVKTNVQDMANWVMANMAPENVADASLKQGIALAQSRYWRIGSMYQGLGWEMLNWPVEANTVVETSFGNVALAPLPVAEVNPPAPPVKASWVHKTGSTGGFGSYVAFIPEKQIGIVMLANTSYPNPARVEAAYHILEALQ
Consider B2, for which the binding result in assay [2] is on record as “binds”.

B3: NA08.15 (CAB1.4) (scFv)
chain: B2 chain with R13K, P14S, T16G, W181V, S184D, S226D
Regarding B3, the binding result in assay [3] is on record as “binds”.

B4: NA06.2 (scFv)
chain: B2 chain with Q3K, R13K, P14S, T16G, E42G, V146M, W181V, A194D
Consider B4, for which the binding result in assay [4] is on record as “binds”.

B5: clone pSW134.1 (scFv)
chain: B1 chain with L102T, A104P, I105Y, A163S, Y165S, A166Y, D241K
Take B5: the binding result in assay [5] is recorded as “binds”.

B6: clone pSW129.5 (scFv)
chain: B1 chain with A104P, I105Y, N107F, A163S, Y165S, A166Y, D241K
With B6, the binding result in assay [5] is reported as “binds”.

B7: NA05.15 (scFv)
chain: B2 chain with Q3K, P14S, V37L, F170Y, A194D
Consider B7, for which the binding result in assay [2] is “binds”.

B8: NA06.12 (scFv)
chain: B2 chain with Q3K, R13K, P14S, T16G, E136Q, V146M, W181V
As for B8, the binding result in assay [4] was “binds”.

B9: NA06.11 (scFv)
chain: B2 chain with R13K, P14S, T16G, V146M, W181V, A194D
Take B9: the binding result in assay [4] is listed as “binds”.

B10: NA06.10 (scFv)
chain: B2 chain with Q3K, R13K, P14S, T16G, W181V, A194D
With B10, in assay [4], the binding result is “binds”.

B11: NA06.4 (scFv)
chain: B2 chain with Q3K, R13K, P14S, T16G, W181V
As for B11, the binding result in assay [4] is given as “binds”.
